# From publication PMC8299219 (Cell, 2021)
# Biological target: SARS-CoV-2 S ectodomain trimer, prefusion-stabilized, 2P variant (Wrapp et al., 2020) (SARS-CoV-2, Wuhan-Hu-1, UniProt P0DTC2, stabilised)
row,Binder,binding result
1,"C81G9 (antibody, V domains shown) VH: EVQLVESGGGLVQPGGSLRLSCAASGFTFSSYSVNWVRQAPGKGLEWVSYISSSSLTIYYADSVKGRFIISRDNAKNSLYLQMNSLRDEDTAVYHCAREGPSSSWFSYYYMDVWGKGTTVTVSS VL: QSALTQPASVSGSPGQSITISCTGTSSDVGSYNLVSWYQQHPGKAPKLMIYEGSKRPSGVSNRFSGSKSGNTASLTISGLQAEDEAEYYCCSYAGSSTSPYVFGTGTKVTAL",binds
2,"C53E4 (antibody, V domains shown) VH: QVQLVQSGAEVKKPGASVKVSCKASGYTYTSYGISWVRQAPGRGLEWMGWISAYNGNTNYAQKLQGRVTMTTDTSTSTAYMELRSLRSDDTAVYYCARDQGLWYYYDSSGFALDYWGQGTLVTVSS VL: EIVLTQSPATLSLSPGERATLSCRASQSVSSYLAWYQQKPGQAPRLLIYDASNRATGIPARFSGSGSGTDFTLTISSLEPEDFAVYYCQQRSNWPRYTFGQGTKLEIK",binds
3,"C53E6 (antibody, V domains shown) VH: EVQLVESGGGLVKPGGSLKLSCAASGFTFSSYSMNWVRQAPGKGLEWVSSISSSSSYIYYADSVKGRFTISRDNAKNSLYLQMNSLRAEDTAVYYCARASYDFWSGQDHWFDPWGQGTLVTVSS VL: EIVLTQSPATLSLSPGERATLSCRASQSVSSYLAWYQQKPGQAPRLLIYDASNRATGIPAKFSGSGSGTDFTLTISSLEPEDFAVYYCQQRSNWPPITFGQGTRLEIK",binds
4,"C29C2 (antibody, V domains shown) VH: EVQLVQSGAEVKKPGESLKISCKGSGYSFTSYWIGWVRQMPGKGLEWMGIIYPGDSDTRYSPSFQGQVTISADKSISTAYLQWSSLKASDTAMYYCARLPVSTHPLYYYFGMDVWGQGTTVTVSS VL: not shown",binds
5,"C81G11 (antibody, V domains shown) VH: QVQLQESGPGLVKPSGTLSLTCAVSGGSISSSNWWSWVRQPPGKGLEWIGEIYHSGNTNYNPSLTSRVTLSVDKSKNQFSLKLSSVTAADTALYYCAGRFCGSTSCPNWFDPWGQGTLVTVSS VL: QSALTQPASVSGSPGQSITISCTGTSSDVGSYNLVSWYQQHPGKAPKLMIYEGSKRPSGVSNRFSGSKSGNTASLTISGLQAEDEADYYCCSYAGSSTWVFGGGTKLTVL",binds
6,"C81A3 (antibody, V domains shown) VH: QVQLQESGPGLVKPSGTLSLTCAVSGGSISSSNWWSWVRQPPGKGLEWIGEIYHSGSTNYNPSLKSRVTISVDKSKNQFSLKLSSVTAADTAVYYCARRYCSGGSCSGFDYWGQGTLVTVSS VL: QSALTQPASVSGSPGQSITISCTGTSSDVGSYNLVSWYQHHPGKAPKLMIYEGSKRPSGVSNRFSGSKSGNTASLTISGLQAEDEADYYCCSYAGFSTWVFGGGTKLTVL",binds
7,"C12J11 (antibody, V domains shown) VH: QVQLQESGPGLVKPSGTLSLTCAVSGGSISSSNWWSWVRQPPGKGLEWIGEIYHSGSTNYNPSLKSRVTISVDKSKNQFSLKLSSVTAADTAVYYCAIRASGYYNWFDPWGQGTLVTVSS VL: QSALTQPASVSGSPGQSITISCTGTSSDVGSYNLVSWYQQHPGKAPKLMIYEGSKRPSGVSNRFSGSKSGNTASLTISGLQAEDEADYYCYSYAGSSTWVFGGGTKLTVL",binds
8,"C12I5 (antibody, V domains shown) VH: QVQLQESGPGLVKPSGTLSLTCAVSGGSISSSNWWSWVRQPPGKGLEWIGEIYHSGSTNYNPSLKSRVTISVDKSKNQFSLKLSSVTAADTAVYYCARGWGSSSYWFDPWGQGTLVTVSS VL: QSALTQPASVSGSPGQSITISCTGTSSDVGSYNLVSWYQQHPGKAPKLMIYEGSKRPSGVSNRFSGSKSGNTASLTISGLQAEDEADYYCCSYAGSSTWVFGGGTKLTVL",binds
9,"C12D6 (antibody, V domains shown) VH: QLQLQETGPGLVKPSGTLSLTCAVSGDSISSSDWWTWVRQPPGKGLEWIGEIYHSGSTNYNPSLKSRVTISVDKSKNQFSLKLSSVTAADTAVYYCARRGRAASERGTGNFDYWGQGTLVTVSS VL: QSALTQPASVSGSPGQSITISCTGTSSDVGSYNLVSWYQQHPGKAPKLMIYEVSKRPSGVSNRFSGSKSGNTASLTISGLQAEDEADYYCCSYAGSSTWVFGGGTKLTVL",binds
10,"C12I11 (antibody, V domains shown) VH: QVQLQESGPGLVKPSGTLSLTCAISGGSISSSNWWSWVRQPPGKGLEWIGEIYHSGSTNYNPSLKSRVTISVDKSKNQFSLKLSSVTAADTAVYYCARGALVPAARLNAFDIWGQGTMVTVSS VL: QSALTQPASVSGSPGQSITISCTGTSSDVGSYNLVSWYQQHPGKAPKLMIYEGSKRPSGVSNRFSGSKSGNTASLTISGLQAEDEADYYCCSYAGSSTYVFGTGTKVTVL",binds
11,"C81B10 (antibody, V domains shown) VH: QLQLQESGPGLVKPSQTLSLTCTVSGGSISSGDYYWSWIRQPPGKGLEWIGYIYYSGSTYYNPSLKSRVTISVDTSKNQFSLKLSSVTAADTAVYYCARVRGTYYYVSGSYYPRPLYYYYMDVWGKGTTVTVSS VL: not shown",binds
12,"G32L2 (antibody, V domains shown) VH: QVQLVESGGGVVQPGTSLRLSCAASGFTFSNYDIHWVRQAPGKGLEWVAVISYDGSNKYYADSVKGRFTISRDNSKNTLYLQMNSLRAEDTAVYYCAKDLVLRYFDWLFDGPDYWGQGTLVTVSS VL: SYELTQPPSVSVSPGQTARITCSGDALPKKYAYWYQQKSGQAPVLVIYEDSKRPSGIPERFSGSSSGTMATLTISGAQVEDEADYYCYSTDSSGNHGVFGGGTKLTVL",binds
13,"C41N3 (antibody, V domains shown) VH: EVQLVESGGGLVQPGRSLRLSCAASGFTFDDYAMHWVRQAPGKGLEWVSGISWQSGSIGYADSVKGRFTISRDNAKNSLYLQMNSLRAEDTALYYCAKDPGYDSSGYYYDYWGQGALVTVSS VL: not shown",binds
14,"G32L7 (antibody, V domains shown) VH: EVQLLESGGGSVQPGGSLRLSCAASGFTFSSYAMSWVRQAPGKGLEWVSVISGSGGSTYYADSVKGRFTISRDNSKNTLYLQMNSLRAEDTAVYYCAKAERITMLVVVTLIDYWGQGTLVTVSS VL: QSVLTQPPSVSAAPGQKVTISCSGSSSNIGNNYVSWYQQLPGTAPKLLIYDNNKRPSGIPDRFSGSKSGTSATLGITGLQTGDEADYYCGTWDSSLSAVVFGGGTKLTVL",binds
15,"C12C6 (antibody, V domains shown) VH: QVQLVESGGGVVQPGRSLRLSCAASGFTFSSYAMHWVRQAPGKGLEWVAVISYDGSNKHYADSVKGRFTISRDNSKNTLYLQMNSLRAEDTAVYYCARDPQYCSSTSCSMGVGWFDPWGQGTLVTVSS VL: SYELTQPPSVSVAPGKTARITCGGNNIGSKSVHWYQQKPGQAPVLVIYYDSDRPSGIPERFSGSNSGNTATLTISRVEAGDEADYYCQVWDSSSDHAYWVFGGGTKLTVL",binds
16,"C163E5 (antibody, V domains shown) VH: QVQLQESGPGLVKPSETLSLTCTVSGASIRSFHWSWIRQPAGKGLEWIGRLLTTGSTNYNRSLKSRVTMSVDTSKNQFSLKLSSVTAADTAVYYCSRGTEMNMEVPGVVTGSEFFDYWGQGTLVTVSS VL: EIVLTQSPATLSLSPGERATLSCRASQSVSSYLAWYQRKPGQAPRLLIYDASNRATGIPARFSGSGSGTDFTLTISSLEPEDFAVYYCQQRRNWPETFGQGTKLEIK",binds
17,"C12E9 (antibody, V domains shown) VH: QVQLVQSGAEVKKPGSSVKVSCKASGGTFSSYAISWVRQAPGQGLEWMGGIIPIFGTASYAQKFQGRVTITADESTSTAYMELSSLRSEDTAVYYCARGSVGLGGDCYQCGYYFDYWGQGTLVTVSS VL: not shown",binds
18,"C81F5 (antibody, V domains shown) VH: QVQLVESGGGVVQPGRSLRLSCAASGFTFSNSGMHWVRQAPGKGLEWVAVISYDGSHKYYADSVKGRFTISRDNSKNTLYLQMNTLRAEDTAVYYCAKEESAVAGTGVPYYYYYYMDVWGKGTTVTVSS VL: not shown",binds
19,"G32Q2 (antibody, V domains shown) VH: EVQLLESGGGLVQPGGSLRLSCAASGFTFSNYAMSWVRQAPGKGLEWVSAISGSGSTTYYADSVKGRFTISRDNSKNTLFLQVNSLRAEDTAVYYCAKGERIIMMVVLTLFDYWGQGTLVTVSS VL: QSVLTQPPSVSAAPGQKVTISCPGSSSNIGKNYVSWYQQLPGTAPKLLIYDNNKRPSGIPDRFTGSKSGTSATLDITGLQTGDEADYYCGTWDSSLSAGWVFGGGTKLTVL",binds
20,"C83A7 (antibody, V domains shown) VH: QVQLQESGPGLVKPSETLSLTCTVSGGSVSSGSYYWSWIRQPPGKGLEWIGYIYYSGRTNYNPSLKSRVTISVDTSKNQFSLKLSSVTAADTAVYYCARTVITMIVGNWYFDLWGRGTLVTVSS VL: not shown",binds
21,"C83B6 (antibody, V domains shown) VH: EVQLVESGGGLVKPGGSLRLSCAASGFTFSSYSMNWVRQAPGKGLEWVSYISSSSSTIYYADSVKGRFTISRDNAKNSLYLQMNSLRDEDTAVYYCARDRGGYGPYYYGMDVWGQGTTVTVSS VL: not shown",binds
22,"C12D1 (antibody, V domains shown) VH: EVQLVQSGAEVIKPGESLKISCKGSGYSFTSYWIGWVRQMPGKGLEWMGIIYPGDSDTRYSPSFQGQVTISADKSISTAYLQWSSLKASDTAIYYCARLGGSVTNIEFIDYWGQGTLVTVSS VL: not shown",binds
23,"C93D6 (antibody, V domains shown) VH: EVQLVESGGGLVKPGGSLRLSCAASGFTFSSYSMNWVRQAPGKGLEWVSSISSSSSYIYYADSVKGRFTISRDNAKNSLYLQMNSLRAEDTAVYYCASDLMEDYDFLSGSATSPFDYWGQGTLVTVSS VL: not shown",binds
24,"C12B10 (antibody, V domains shown) VH: EVQLVESGGGLVQPGGSLRLSCAASGFTFSSYAMHWVRQAPGKGLEYVSAINSYGGSTYYANSVKGRFTISRDNSKNTLYLQMGSLRAEDMAVYYCAREVQGVATMDGAFDIWGQGTMVTVSS VL: SYELTQPPSVSVAPGKTARITCGGNNIGSKSVHWYQQKPGQAPVLVIYYDSDRPSGIPERFSGSNSGNTATLTISRVEAGDEADYYCQVWDSSSDPHWVFGGGTKLTVL",binds
